The source of these data is paper PMC6020066 (Science (New York, N.Y.), 2018).

This test concerns the target HA-GST-LC3B (UniProt Q9GZQ8 1-120). As to the kind of experiment: pull-down.

B1: purified FLAG-NUFIP1-HA-ZNHIT3 complex (complex)
chain 1: not shown
chain 2: MASLKCSTVVCVICLEKPKYRCPACRVPYCSVVCFRKHKEQCNPETRPVEKKIRSALPTKTVKPVENKDDDDSIADFLNSDEEEDRVSLQNLKNLGESATLRSLLLNPHLRQLMVNLDQGEDKAKLMRAYMQEPLFVEFADCCLGIVEPSQNEES
On to B1, for which the binding result was “binds”.
